# B1: recombinant full-length Aplysia CPEB (His6-CPEB fusion protein) (natural protein)
# chain: not shown
# How the values were obtained:
# SEC-MALS = target: the molecule itself; assay: SEC-MALS
# SEC [1] = target: the molecule itself; assay: SEC
# SEC [2] = target: the molecule itself; assay: SEC; remark: listed apart in the source
protein,measurement,setting,value
B1,stoichiometry N,SEC-MALS,3
same,stoichiometry N,SEC [1],≥ 10
same,stoichiometry N,SEC [2],> 10
